Laboratory results reported in the supplement of paper PMC11316812.
± gives the standard deviation of the averaged measurements.

How the values were obtained:
MCF7 = test: percentage of EdU-negative (G0-arrested) nuclei per well, 72 h; higher = more G0 arrest; settings: reference: sequence is the full UniProt precursor, the tested protein was the secreted form or ectodomain
hTERT-HMEC = test: as above; settings: reference: sequence is the full UniProt precursor, the tested protein was the secreted form or ectodomain
[1] = protein concentration 0.0173625 µM
[2] = protein concentration 0.173625 µM
[3] = protein concentration 0.0294286 µM
[4] = protein concentration 0.294286 µM
[5] = protein concentration 0.03125 µM
[6] = protein concentration 0.3125 µM
[7] = protein concentration 0.0225 µM
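Note: secreted proteins added to cultured cells, EdU pulse at the end, nuclei found by Hoechst imaging, EdU status from nuclear versus surrounding ring intensity ratio, PBS as neutral control.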

MKLCSLAVLVPIVLFCEQHVFAFQSGQVLAALPRTSRQVQVLQNLTTTYEIVLWQPVTADLIVKKKQVHFFVNASDVDNVKAHLNVSGIPCSVLLADVEDLIQQQISNDTVSPRASASYYEQYHSLNEIYSWIEFITERHPDMLTKIHIGSSFEKYPLYVLKVSGKEQAAKNAIWIDCGIHAREWISPAFCLWFIGHITQFYGIIGQYTNLLRLVDFYVMPVVNVDGYDYSWKKNRMWRKNRSFYANNHCIGTDLNRNFASKHWCEEGASSSSCSETYCGLYPESEPEVKAVASFLRRNINQIKAYISMHSYSQHIVFPYSYTRSKSKDHEELSLVASEAVRAIEKISKNTRYTHGHGSETLYLAPGGGDDWIYDLGIKYSFTIELRDTGTYGFLLPERYIKPTCREAFAAVSKIAWHVIRNV [Q96IY4]
percentage of EdU-negative (MCF7; [1]): 24.7 ± 2.5%
percentage of EdU-negative (MCF7; [2]): 26.8 ± 0.93%
percentage of EdU-negative (hTERT-HMEC; [1]): 5.24 ± 0.032%
percentage of EdU-negative (hTERT-HMEC; [2]): 5.84 ± 0.41%

MASPGCLLCVLGLLLCGAASLELSRPHGDTAKKPIIGILMQKCRNKVMKNYGRYYIAASYVKYLESAGARVVPVRLDLTEKDYEILFKSINGILFPGGSVDLRRSDYAKVAKIFYNLSIQSFDDGDYFPVWGTCLGFEELSLLISGECLLTATDTVDVAMPLNFTGGQLHSRMFQNFPTELLLSLAVEPLTANFHKWSLSVKNFTMNEKLKKFFNVLTTNTDGKIEFISTMEGYKYPVYGVQWHPEKAPYEWKNLDGISHAPNAVKTAFYLAEFFVNEARKNNHHFKSESEEEKALIYQFSPIYTGNISSFQQCYIFD
percentage of EdU-negative (MCF7; [3]): 25 ± 0.49%
percentage of EdU-negative (MCF7; [4]): 25.9 ± 2.2%
percentage of EdU-negative (hTERT-HMEC; [3]): 4.45 ± 0.47%
percentage of EdU-negative (hTERT-HMEC; [4]): 4.7 ± 0.28%

MSLRLDTTPSCNSARPLHALQVLLLLSLLLTALASSTKGQTKRNLAKGKEESLDSDLYAELRCMCIKTTSGIHPKNIQSLEVIGKGTHCNQVEVIATLKDGRKICLDPDAPRIKKIVQKKLAGDESAD
percentage of EdU-negative (MCF7; [5]): 26.14 ± 0.19%
percentage of EdU-negative (MCF7; [6]): 26.53 ± 0.004%
percentage of EdU-negative (hTERT-HMEC; [5]): 5.49 ± 1.9%
percentage of EdU-negative (hTERT-HMEC; [6]): 4.65 ± 0.1%

MALAALMIALGSLGLHTWQAQAVPILPLGLAPDTFDDTYVGCAEEMEEKAAPLLKEEMAHHALLRESWEAAQETWEDKRRGLTLPPGFKAQNGIAIMVYTNSSNTLYWELNQAVRTGGGSRELYMRHFPFKALHFYLIRALQLLRGSGGCSRGPGEVVFRGVGSLRFEPKRLGDSVRLGQFASSSLDKAVAHRFGNATLFSLTTCFGAPIQAFSVFPKEREVLIPPHEVFLVTRFSQDGAQSLVTLWSYNQTCSHFNCAYLGGEKRRGCVSAPGALGTGDLHMTKRHLQQP [Q96L15]
percentage of EdU-negative (MCF7; protein concentration 0.016 µM): 26.5 ± 3.2%
percentage of EdU-negative (MCF7; protein concentration 0.16 µM): 29 ± 1.5%
percentage of EdU-negative (hTERT-HMEC; protein concentration 0.016 µM): 5.18 ± 0.43%
percentage of EdU-negative (hTERT-HMEC; protein concentration 0.16 µM): 7.23 ± 0.71%

Q9Y6N7
percentage of EdU-negative (MCF7; [7]): 27 ± 0.88%
percentage of EdU-negative (MCF7; protein concentration 0.225 µM): 25.6 ± 1.4%
percentage of EdU-negative (hTERT-HMEC; [7]): 5.33 ± 0.86%
percentage of EdU-negative (hTERT-HMEC; protein concentration 0.225 µM): 5.81 ± 0.72%

MEEGQYSEIEELPRRRCCRRGTQIVLLGLVTAALWAGLLTLLLLWHWDTTQSLKQLEERAARNVSQVSKNLESHHGDQMAQKSQSTQISQELEELRAEQQRLKSQDLELSWNLNGLQADLSSFKSQELNERNEASDLLERLREEVTKLRMELQVSSGFVCNTCPEKWINFQRKCYYFGKGTKQWVHARYACDDMEGQLVSIHSPEEQDFLTKHASHTGSWIGLRNLDLKGEFIWVDGSHVDYSNWAPGEPTSRSQGEDCVMMRGSGRWNDAFCDRKLGAWVCDRLATCTPPASEGSAESMGPDSRPDPDGRLPTPSAPLHS
percentage of EdU-negative (MCF7; protein concentration 0.005 µM): 23.6 ± 0.92%
percentage of EdU-negative (MCF7; protein concentration 0.05 µM): 23.9 ± 0.99%
percentage of EdU-negative (hTERT-HMEC; protein concentration 0.005 µM): 5.26 ± 0.5%
percentage of EdU-negative (hTERT-HMEC; protein concentration 0.05 µM): 5.97 ± 0.12%
